In article PMC8322407 (Communications Biology, 2021):

Tests used:
[1] = target: the molecule itself; assay: cryo-EM structure; hArg1 and full-length mAb mixed at 3:1 molar ratio in 25 mM HEPES pH 7.4, 150 mM NaCl, 1.0 mM MnCl2, incubated 30 min; diluted to ~75 uM monomeric arginase, DDM added to the CMC
[2] = target: T1, Monomeric hArg1 (Arg308 mutated to alanine) (Homo sapiens (Human)., UniProt P05089, Arg308 to an alanine residue); assay: SPR; Antibody captured on an anti-mouse IgG or anti-human Fc surface (CM5 chip, Biacore T200 or 4000); human ARG1 injected, twofold dilutions from 100 nM; 10 mM HEPES, 150 mM NaCl, 0.05% P20, 3 mM EDTA, pH 7.4; 25 °C; 1:1 binding model; details: both partners purified
T1 construct: Human arginase 1 with Arg308 at the monomer interface mutated to alanine, which gives a monomer; also called monomeric human ARG1

[3] = target: T2, Human Arginase 1 (hArg1), trimeric (human, UniProt P05089); assay: as above; details: both partners purified
T2 construct: Human arginase 1, full-length, untagged; trimeric metalloenzyme, each monomer ~35 kDa; buffers contained MnCl2 (the SPR buffer contained 3 mM EDTA); also called trimeric hArg1; human Arg1; source: E. coli BL21 (DE3), purified (heat treatment, HiTrap-SP, Superdex 200)

[4] = target: T2, Human Arginase 1 (hArg1), trimeric; assay: enzyme inhibition kinetics; Thioarginine to thioornithine assay; 1 nM human or mouse arginase incubated 30 min at room temperature with fixed antibody concentrations, variable thioarginine; 50 mM Tris pH 7.5, 50 mM NaCl, 1 mM Mn chloride, 0.05% BSA; competitive inhibition model; details: both partners purified
[5] = target: T2, Human Arginase 1 (hArg1), trimeric; assay: cryo-EM structure; hArg1 and full-length mAb mixed at 3:1 molar ratio in 25 mM HEPES pH 7.4, 150 mM NaCl, 1.0 mM MnCl2, incubated 30 min; diluted to ~75 uM monomeric arginase, DDM added to the CMC; details: both partners purified
[6] = target: T3, mouse Arg1 (Mus musculus (Mouse)., UniProt Q61176); assay: enzyme inhibition kinetics; Thioarginine to thioornithine assay; 1 nM human or mouse arginase incubated 30 min at room temperature with fixed antibody concentrations, variable thioarginine; 50 mM Tris pH 7.5, 50 mM NaCl, 1 mM Mn chloride, 0.05% BSA; competitive inhibition model; details: both partners purified
T3 construct: Mouse arginase 1; construct not described; also called mouse arginase
T3 sequence (Q61176 whole entry): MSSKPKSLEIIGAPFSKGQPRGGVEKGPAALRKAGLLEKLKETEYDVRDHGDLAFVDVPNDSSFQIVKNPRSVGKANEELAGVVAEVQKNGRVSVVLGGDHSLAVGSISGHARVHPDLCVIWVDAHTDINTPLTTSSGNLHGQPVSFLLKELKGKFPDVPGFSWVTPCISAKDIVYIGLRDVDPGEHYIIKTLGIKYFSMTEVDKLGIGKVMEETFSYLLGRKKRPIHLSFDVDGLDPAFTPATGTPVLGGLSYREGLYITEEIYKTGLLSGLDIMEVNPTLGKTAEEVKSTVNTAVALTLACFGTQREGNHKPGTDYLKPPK

B1: Human Arginase 1 (hArg1), trimeric (enzyme, UniProt P05089 1-322, looked up)
chain: MSAKSRTIGIIGAPFSKGQPRGGVEEGPTVLRKAGLLEKLKEQECDVKDYGDLPFADIPNDSPFQIVKNPRSVGKASEQLAGKVAEVKKNGRISLVLGGDHSLAIGSISGHARVHPDLGVIWVDAHTDINTPLTTTSGNLHGQPVSFLLKELKGKIPDVPGFSWVTPCISAKDIVYIGLRDVDPGEHYILKTLGIKYFSMTEVDRLGIGKVMEETLSYLLGRKKRPIHLSFDVDGLDPSFTPATGTPVVGGLTYREGLYITEEIYKTGLLSGLDIMEVNPSLGKTPEEVTRTVNTAVAITLACFGLAREGNHKPIDYLNPPK
notes: Human arginase 1, full-length, untagged; trimeric metalloenzyme, each monomer ~35 kDa; buffers contained MnCl2 (the SPR buffer contained 3 mM EDTA); also called trimeric hArg1; human Arg1; source: E. coli BL21 (DE3), purified (heat treatment, HiTrap-SP, Superdex 200)
For B1, the “stoichiometry N” value [1] was 3.

B2: mAb4 (antibody, V domains shown)
VH: EVQLVQSGAEVKKPGASVKVSCKASGYTFTDYYMNWVRQAPGQGLEWIGVISPYNGGTTYNQKFKGKATLTVDKSTSTAYMELSSLRSEDTAVYYCVYDLYYFDYWGQGTLVTVSS
VL: EIVLTQSPATLSLSPGERATLSCRASQRISNDLHWYQQKPGQAPRLLIKYASQSISGIPSRFSGSGSGTDFTLTISSLEPEDFAVYYCQQSNSWPRTFGGGTKLEIK
B2 showed a Kd [2] of 20 nM and a Kd [3] of 0.56 nM.

B3: mAb1 (antibody, V domains shown)
VH: QVQLVQSGAEVKKPGASVKVSCKASGYTFTNYGISWVRQAPGQGLEWMGWISAYNGNTNYAQKLQGRVTMTTDTSTSTAYMELRSLRSDDTAVYYCAREGAYGYRSPYHNWFDPWGQGTLVTVSS
VL: EIVMTQSPATLSLSPGERATLSCRASQSVSSYLAWYQQKPGQAPRLLIYDASNRATGIPARFSGSGSGTDFTLTISSLEPEDFAVYYCQQHSLLPRTFGGGTKVEIK
notes: Human heavy chain variable domain from yeast display; heavy chain of the Fab in PDB 7LEX and 7LEZ; Mouse IgG2a heavy chain constant region (backbone); Human light chain variable domain from yeast display; light chain of the Fab in PDB 7LEX and 7LEZ; Mouse kappa light chain constant region (mouse IgG2a/kappa backbone); Full-length mAb, human variable regions on a mouse IgG2a/kappa backbone; The Fc …
B3 showed a Ki [4] of 3.3 ± 0.3 nM.

B4: mAb2 (antibody, V domains shown)
VH: QVQLVQSGAEVKKPGASVKVSCKASGYTFTNYGISWVRQAPGQGLEWMGWISAYNGNTNYAQKLQGRVTMTTDTSTSTAYMELRSLRSDDTAVYYCAREGAYGYRSPYHNWFDPWGQGTLVTVSS
VL: EIVMTQSPATLSLSPGERATLSCRASQSVSSYLAWYQQKPGQAPRLLIYDASNRATGIPARFSGSGSGTDFTLTISSLEPEDFAVYYCQQHSLLPRTFGGGTKVEIK
notes: Human heavy chain variable domain, identical to that of m3 (mAb1); heavy chain of the Fab in PDB 7LF0; Human light chain variable domain, identical to that of m3 (mAb1); light chain of the Fab in PDB 7LF0; Mouse kappa light chain constant region (mouse IgG1 D265A/kappa backbone); Full-length mAb; differs from mAb1 only in the constant domains; also called mAbs1-3 (member); source: ExpiCHO-S, …
B4 was tested, and the Ki [4] was 5.3 ± 0.8 nM.

B5: mAb5 (antibody, V domains shown)
VH: EVQLVESGGGVVRPGGSLRLSCAASGFTFDDYGMTWVRQAPGKGLEWVSGINWNGGSTGYADSVKGRFTISRDNAKNSLYLQMNSLRAEDTALYHCARDRRRGSYGSDAFDIWGQGTMVTVSS
VL: DIQMTQSPSSLSASVGDRVTITCRASQGISNYLAWYQQKPGKVPQLLISAASTLQSGVPSRFSGSGSGTDFTLTISSLQPEDVATYYCQKYNSAPRTFGQGTKVEIK
notes: Human heavy chain variable domain from a transgenic (Trianni) mouse immunization; heavy chain of the Fab in PDB 7LEY; Human light chain variable domain from a transgenic (Trianni) mouse immunization; light chain of the Fab in PDB 7LEY; Mouse kappa light chain constant region (mouse IgG1 D265A/kappa backbone); Full-length mAb, human variable regions on a mouse IgG1 D265A/kappa backbone; source: …
B5 was tested, and the binding result [5] was “binds” and the Ki [6] was 25 ± 1.7 nM.
